The record followed here is patent publication US20200131263A1 (JIANGSU HENGRUI MEDICINE, published 2020).

For assay [1], the target named is T1, human h-GITR-his antigen (Sino Biological, Cat. #13643-H08H) (human, UniProt Q9Y5U5 26-161).
T1 construct: Bought protein; also called GITR antigen; not shown: His tag
T1 sequence (looked up): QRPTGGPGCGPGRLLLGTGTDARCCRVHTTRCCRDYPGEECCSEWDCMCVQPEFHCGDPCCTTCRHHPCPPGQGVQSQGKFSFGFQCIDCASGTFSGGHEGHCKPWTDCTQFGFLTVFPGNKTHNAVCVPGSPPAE
Nature of the assay: SPR (Biacore T200), antibody captured on Protein A chip, h-GITR-his as analyte, 1:1 Langmuir fit. The method, then: The affinities of humanized anti-GITR antibodies to be tested and human GITR were measured by Biacore, GE instruments.
A Protein A biosensor chip (Cat. 29-1275-56, GE) for a Biacore Instrument (Biacore T200, GE) was used to affinity-capture a certain amount of antibodies to be tested, and then a series of concentration gradients of GITR antigen (human h-GITR-his antigen was selected from Sino Biological Company (Cat. #13643-H08H)) were flowed through the surface of the chip. Real-time reaction signals were detected by a Biacore Instrument (Biacore T200, GE), thus obtaining the binding and dissociation curves. The biochip was rinsed and regenerated with 10 mM glycine pH 1.5 after each dissociation cycle, and the buffer was PBST, pH7.4. The experimental data were fitted with (1:1) Langmuir model using Biacore T200 Evaluation 2.0, GE software, and the affinity values were obtained, as shown in Table 2.

Assay [2] concerns the target T2, human GITR with mFc tag (huGITR-mFc) (human).
T2 chain: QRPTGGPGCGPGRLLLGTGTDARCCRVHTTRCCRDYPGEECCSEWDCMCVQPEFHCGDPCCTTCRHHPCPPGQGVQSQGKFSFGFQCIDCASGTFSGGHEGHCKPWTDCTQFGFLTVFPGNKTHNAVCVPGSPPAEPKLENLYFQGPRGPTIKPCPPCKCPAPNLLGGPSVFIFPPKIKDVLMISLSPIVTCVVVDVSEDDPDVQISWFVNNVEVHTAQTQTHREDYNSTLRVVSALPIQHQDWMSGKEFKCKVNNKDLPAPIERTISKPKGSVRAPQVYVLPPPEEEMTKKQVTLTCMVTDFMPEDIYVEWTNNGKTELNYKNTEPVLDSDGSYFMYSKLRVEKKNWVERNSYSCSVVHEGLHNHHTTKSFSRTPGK
Nature of the assay: ELISA, huGITR-mFc coated at 1 ug/ml. The method, then:
The huGITR-mFc was diluted to 1 μg/ml with CBS buffer pH 9.5, added to the 96-well microplate at 50 μl/well, and incubated overnight at 4° C. The supernatant was discarded prior to 300 μl/well of 1% BSA blocking buffer diluted with PBS to the wells, and the plate was incubated for 2.5h at 37° C. in an incubator for blocking. After blocking, the blocking buffer was discarded, and the plate was washed three times with PBST buffer (pH 7.4 PBS containing 0.05% tween-20). 50 μl/well of the antibodies to be tested were added, with the antibodies being diluted to different concentrations with sample diluent, and the plate was incubated at 37° C. in an incubator for 30 minutes. The plate was then washed with PBST three times, and 50 μL/well of Peroxidase AffiniPure Goat Anti-Human secondary antibody (Jackson immune research, 115-035-088) diluted with sample diluent was added, followed by incubating at 37° C. for 30 minutes. After washing the plate with PBST three times, 50 μl/well of TMB chromogenic substrate was added and the plate was incubated at room temperature for 5 minutes prior to adding 50 μl/well of 1M […] to terminate the reaction. The absorption value at 450 nm was read by a MD plus 384 microplate reader. The data were analyzed with SoftMax Pro6.2.1 to obtain binding EC50 values of the anti-GITR antibodies to GITR, as shown in Table 1.
(In general: In an ELISA, binding on a coated surface is turned into a signal by an enzyme label.)

The target in assay [3] is T2, human GITR with mFc tag (huGITR-mFc). Description: ELISA, blocking of GITRL-His binding to coated GITR-Fc. The method, then: huGITR-mFc was diluted to 2 μg/ml with CBS buffer pH 9.5, added to the 96-well microplate at a volume of 50 μl/well, and incubated overnight at 4° C. The supernatant was discarded prior to adding 300 μl/well of 1% BSA blocking buffer diluted with PBS, and the plate was incubated for blocking for 2.5h at 37° C. in an incubator. After blocking, the blocking buffer was discarded, and the plate was washed three times with PBST buffer (pH 7.4 PBS containing 0.05% tween-20) prior to adding antibodies for pre-incubation, wherein the antibodies were diluted into gradient concentrations with sample diluent. 0.15 μg/ml of GITRL-His protein in a volume of 50 μl/well was added, mixed and incubated at 37° C. in an incubator for 30 minutes. The reaction buffer was then discarded, the plate was washed with PBST three times, and 50 μL/well of Peroxidase AffiniPure Goat Anti-Human secondary antibody diluted with sample diluent at a ratio of 1:4000 was added, then the place was incubated at 37° C. for 30 minutes. After washing the plate with PBST three times, 50 μl/well of TMB chromogenic substrate was added and the plate was incubated at room temperature for 5 minutes prior to adding 50 μl of 2M H₂SO₄ to terminate the reaction. The absorption value at 450 nm was read by a MD plus 384 microplate reader. The EC50 values of GITR antibodies binding to GITR were obtained by analyzing the data with SoftMax Pro6.2.1, as shown in Table 1.

Assay [4] deals with cynomolgus GITR (cyno-GITR) (cynomolgus). Nature of the assay: ELISA, cyno GITR coated at 1 ug/ml. The method, then:
(§1) The GITR proteins from different species (mouse/cyno GITR) were diluted to 1 μg/ml with PBS buffer pH 9.5, and 50 μl/well was added to a 96-well microplate, which was incubated overnight (16-18 hours) at 4° C. The buffer in the plate was discarded prior to adding 300 μl/well of 1% BSA blocking buffer diluted with PBS, and the plate was incubated for blocking for 2.5h at 37° C. in an incubator. After blocking, the blocking buffer was discarded, and the plate was washed three times with PBST buffer (pH 7.4 PBS containing 0.05% tween-20). 50 μl/well antibodies to be tested were added to the plate, wherein the antibodies were diluted to different concentrations with sample diluent (pH7.4 PBS), and the plate was incubated at 37° C. in an incubator for 30 minutes. After incubation, the reaction buffer in the microplate was discarded prior to washing the plate with PBST three times, and 50 μL/well of Peroxidase AffiniPure Goat Anti-Human secondary antibody (JacksonImmunoResearch, 109-035-088) which was diluted with sample diluent was added, and the plate was incubated at 37° C. for 1 hour. […] The absorption value at 450 nm was read by a MD plus 384 microplate reader.

A further assay deals with T3, mouse GITR (mouse, UniProt O35714 20-153, limits assumed).
T3 sequence (looked up): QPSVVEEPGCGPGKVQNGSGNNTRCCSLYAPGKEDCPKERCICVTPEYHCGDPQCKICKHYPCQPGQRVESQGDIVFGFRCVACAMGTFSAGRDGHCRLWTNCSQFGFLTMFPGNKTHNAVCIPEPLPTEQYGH
Description: ELISA, mouse GITR coated at 1 ug/ml. The method, then:
as §1

B1: humanized anti-GITR antibody hu18F10 (antibody, human IgG1, kappa, V domains shown)
VH: QVQLVQSGAEVVKPGASVKVSCKASGYTFTGYDLHWVRQAPGQGLEWIGVISTYYGDANYNQKFQGRVTMTVDTSSSTAYMELSRLRSEDTAVYYCTRLAESYFFDYWGQGTTLTVSS
VL: EIVLTQSPATLSASPGERVTLTCRASSSVSYLHWYQQKPGQAPKPWIYDTSNLASGFPARFSGDGSGTDYTLTISSLEAEDAAVYYCHQRSSYPFTFGSGTKLEIKR
One may read the Kd as the concentration at which binding is half-saturated. A lower Kd goes with higher affinity. A word on the koff: it is the first-order rate constant of dissociation. Read a high koff as fast dissociation. In general, kon refers to the second-order rate constant of association. In assay [1], B1 came in with an equilibrium dissociation constant (Kd) of 330 pM, a koff of 0.000204 s⁻¹ and a kon of 613000 M⁻¹ s⁻¹.

B2: mouse monoclonal antibody 16G9 (antibody, V domains shown)
VH: QVQLQQSGAELAKPGASVKMSCKASGYTFTTYWIHWIKQRPGQGLEWIGYINPSTGYTDYNQNFKDKATLTADQYSSTAYMQLSSLTFEDSAVYYCANYYGSTPYYWGRGTTLTVSS
VL: QIVLTQSPAIMSASPGEKVTMTCSASSSVTYVHWYQQKSGASPERWIFDASKLASGVPARFSGSGSGTSYSLTISSMETEDAATYYCQQWSSNPLTFGAGTKLELK
notes: Mouse antibody from a hybridoma
What is called EC50 is the concentration giving half of the maximal effect. A low value points to an effect from little substance. As usually defined, the IC50 is the midpoint of a concentration-inhibition curve. For the molecule B2, the EC50 in assay [2] was found to be 75 pM. In assay [3], this molecule came in with an IC50 of 10300 pM.

B3: mouse monoclonal antibody 18F10 (antibody, V domains shown)
VH: QVQLQQSGAELVRPGVSVKISCKCSGYTFTGYDLHWVKQSHAKSLDWIGVISTYYGDANYNQKFKGKATMTVDKSSSTAYMELARLTSEDSAIYYCTRLAESYFFDYWGQGTTLTVSS
VL: QILLTQSPAIMSASPGEKVTMTCRASSSVSYIHWYQQKPGSSPKPWIYDTSDLASGFPARFSGTGSGTSYSLIISSMEAEDAATYYCHQRSSYPFTFGSGTKLEIK
notes: as for B2
Consider B3, for which the EC50 was 744 pM in assay [4] and 103 pM in assay [2]. In addition, in the assay with mouse GITR, the binding result is on record as “no binding”. For the same molecule, in assay [3], the IC50 was 6040 pM.

B4: mouse monoclonal antibody 7D9 (antibody, V domains shown)
VH: DVQLQESGPGLVKPSQSLSLTCTVTGYSITSDYAWNWIRQFPGNKLEWLGYISYSGSTYYNPSLKSRISLTRDTSKNQFFLQLNSVTSEDTATYYCARWDYRYDGRGFDYWGQGTTLTVSS
VL: DIQMTQSPSSLSASLGERVSLTCRASQDIGSGLNWLQQEPDGTIKRLIYATSSLDSGVPKRFSGSRSGSDYSLTISSLESEDFVDYNCLQYTSTPWTFGGGTKLEIK
notes: as for B2
Consider B4, for which the EC50 in assay [2] was determined as 55 pM. The IC50 in assay [3] stood at 3890 pM.

B5: mouse monoclonal antibody 8A11 (antibody, V domains shown)
VH: EVKLVESGGGLVKPGGSLKLSCAASGFTFSSYAMSWVRQTPEKRLEWVAYISSGGSTYYPDSVKGRFTISRENARNILYLQMSSLRSEDTAMYYCAREGYGTYGDYWGQGTTLTVSS
VL: DIVMSQSPSSLAVSVGEKVTMSCKSSQSLLYSTNQKNYLAWYQQKPGQSPKLLIYWASTRESGVPDRFTGSGSGTDFTLTISSVKAEDLAVYYCQQYYSYLRTFGGGTKLEIK
notes: as for B2
Consider B5, for which the values for the EC50 in assay [4] and in assay [2] were 5210 pM and 77 pM, respectively. Besides, the binding result with mouse GITR was “no binding”. Besides, in assay [3], the IC50 amounted to 7570 pM.

B6: reference antibody BMAB (Merck's MK-4166 antibody) (antibody, V domains shown)
VH: QVQLQQSGAEVKKPGSSVRVSCKASGGTFNNNAINWVRQAPGQGLEWMGGIIPMFGTAKYSQNFQGRVAITADESTGTASMELSSLRSEDTAVYYCARSRDLLLFPHHALSPWGRGTMVTVSS
VL: SSELTQDPAVSVALGQTVRVTCQGDSLRSYYASWYQQKPGQAPVLVIYGKNNRPSGIPDRFSGSSSGNTASLTITGAQAEDEADYYCSSRDSSGNHWVFGGGTELTVLG
B6 gave an EC50 in assay [2] of 74 pM. In assay [3], this molecule gave an IC50 of 1390 pM. In assay [1], this molecule showed a Kd of 185 pM.

B7: humanized anti-GITR antibody hu8A11 (antibody, human IgG1, kappa, V domains shown)
VH: EVQLVESGGGLVQPGGSLRLSCAASGFTFSSYAMSWVRQAPGKGLEWVAYISSGGSTYYPDSVKGRFTISRDNAKNSLYLQMNSLRAEDTAVYYCAREGYGTYGDYWGQGTTLTVSS
VL: DIVMTQSPSSLAVSVGERVTISCKSSQSLLYSTNQKNYLAWYQQKPGQSPKLLIYWASTRESGVPDRFSGSGSGTDFTLTISSLQAEDVAVYYCQQYYSYLRTFGGGTKLEIKR
notes: also called h8A11
Consider B7, for which, in assay [1], binding was characterised by a dissociation constant (Kd) of 620 pM, the koff is 0.000104 s⁻¹ and the kon was found to be 168000 M⁻¹ s⁻¹.
